Series [1] deals with the molecule itself. In words: SEC; […]; 10 mM Tris-HCl pH 8.0, 150 mM NaCl; 0.2 ml/min; […]. For orientation: Size exclusion chromatography separates by hydrodynamic size, large species first.
The series “SEC” deals with the molecule itself. The experiment in a line: SEC.

B1: AtaR2 antitoxin (natural protein)
chain: MKPESKEAPINIRAKASQRDLIDMAANLVAKSRTDFMLDAACREAQDILLDQRLFILDDEQYDAFLAALDAPITAERQAKINALMNRKSPWE
As a reminder, the stoichiometry N is a count of units in the complex or per binding partner. In the case of B1, the “stoichiometry N” value in series [1] is 4.

B2: AtaT2 toxin (enzyme)
chain: MGITAPTPLTSEHNLADFCCSDHGMNEWLKKKALKNHSSGLSRVYVICIANTRQVIGYYCLSTGSIQRNLAPGAMRRNAPESLPVVVLGRLAIDQAWAGKGLGVALLKDAVYRTMSIAQQVGVRALIVHALDDSVRNFYLKYAFVPSPFQSLTLLYPITLE
Take B2: in the series “SEC”, the “stoichiometry N” value was determined as 2.

The values above are taken from article PMC7470980, “Mechanism of translation inhibition by type II GNAT toxin AtaT2” (Nucleic Acids Research, 2020).
